{"source": "patent US20240317845A1", "about": "(NINGBO SANSHENG BIOLOGICAL TECHNOLOGY, published 2024)", "binders": {"B1": {"name": "anti-inhibin monoclonal antibody 1E5 secreted by hybridoma cell line 1E57 (antibody, V domains shown)", "VH": "EVKLVESGPELKKPGETVKISCKASGYTFTDYSMHWVKQAPGKGLKWMGWINTETGEPTYADDFKGRFAFSLETSASTAYLQINNLKNEDTATYFCAYYGPPTYSLDYWGQGASVTVSS", "VL": "DIQMTQTTSSLSASLGDRVTISCRASQGISNYLNWYQQKPDGTVKLLIYYTSRLLSGVPSRFSGSGSGTDYSLTISNLEQEDIATYFCQQGYTLPFTFGSGTKLEIK", "notes": "Mouse hybridoma antibody; Tested as culture supernatant, as ascites and as Protein G purified ascites antibody; also called 1E57 culture supernatant; ascites-derived monoclonal antibody 1E5"}}, "key": {"[1]": {"target": "T1, 6-25 fragment of inhibin α-subunits coupled to chicken ovalbumin (OVA) (porcine (fragment said to be 100% …, UniProt P01012 2-386, chemically coupled to chicken ovalbumin (OVA)))", "T1 construct": "also called antigenic peptide; 6-25 fragment of inhibin a subunits", "T1 sequence (peptide, as listed by the source limits assumed, chain 1 of 2)": "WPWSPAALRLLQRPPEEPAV", "T1 sequence (P01012 2-386 limits assumed, chain 2 of 2)": "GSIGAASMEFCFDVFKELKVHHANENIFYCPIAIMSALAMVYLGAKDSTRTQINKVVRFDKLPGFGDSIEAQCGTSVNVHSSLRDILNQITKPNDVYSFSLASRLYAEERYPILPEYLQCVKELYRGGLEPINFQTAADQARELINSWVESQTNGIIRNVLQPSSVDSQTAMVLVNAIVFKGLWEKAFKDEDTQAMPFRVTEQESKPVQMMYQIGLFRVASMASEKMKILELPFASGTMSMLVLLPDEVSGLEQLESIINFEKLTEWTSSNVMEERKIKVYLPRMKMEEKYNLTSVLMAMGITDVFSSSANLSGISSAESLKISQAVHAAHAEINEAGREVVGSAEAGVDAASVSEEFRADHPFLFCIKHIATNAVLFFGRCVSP", "assay": "indirect ELISA, plate coated with 6-25 fragment-OVA, culture supernatant, replicate 1", "method": "(§1) The 6-25 fragment of inhibin α-subunits coupled to chicken ovalbumin (OVA) were diluted to a sodium bicarbonate solution having a pH9.6 at a concentration of 10 μg/ml, and 100 μl per well was added to the microtiter plate (96 well plate). The plate was set aside overnight at 2-8° C. overnight, and taken out for washing and then patted dry next day, 5% BSA was added into the plate to block, 200 μl per well, and incubated at 37° C. for 1 h;\n(§2) The plate was washed and patted dry. 100 μl of the fused culture supernatant was taken under aseptical conditions, added to the microtiter plate, and incubated at 37° C. for 1 h;\n(§3) After washing the plate, chromogenic solution was added into the plate, 100 μl per well, and incubated at 37° C. for 5-10 minutes. 50 μl of stop solution was added into the plate, and the absorbance value was read at a wavelength of 460 nm."}, "[2]": {"target": "T1, 6-25 fragment of inhibin α-subunits …", "assay": "indirect ELISA, plate coated with 6-25 fragment-OVA, culture supernatant, replicate 2", "method": "as §1, §2, §3"}}}
{"binder": "B1", "values": [{"measurement": "absorbance at dilution ratio 200", "setting": "[1]", "result": 3.31, "unit": "absorbance"}, {"measurement": "absorbance at dilution ratio 400", "setting": "[1]", "result": 2.8, "unit": "absorbance"}, {"measurement": "absorbance at dilution ratio 800", "setting": "[1]", "result": 2.92, "unit": "absorbance"}, {"measurement": "absorbance at dilution ratio 1600", "setting": "[1]", "result": 2.28, "unit": "absorbance"}, {"measurement": "absorbance at dilution ratio 3200", "setting": "[1]", "result": 1.69, "unit": "absorbance"}, {"measurement": "absorbance at dilution ratio 6400", "setting": "[1]", "result": 1.28, "unit": "absorbance"}, {"measurement": "absorbance at dilution ratio 12800", "setting": "[1]", "result": 0.823, "unit": "absorbance"}, {"measurement": "absorbance at dilution ratio 25600", "setting": "[1]", "result": 0.613, "unit": "absorbance"}, {"measurement": "absorbance at dilution ratio 51200", "setting": "[1]", "result": 0.359, "unit": "absorbance"}, {"measurement": "absorbance at dilution ratio 102400", "setting": "[1]", "result": 0.263, "unit": "absorbance"}, {"measurement": "absorbance at dilution ratio 200", "setting": "[2]", "result": 3.25, "unit": "absorbance"}, {"measurement": "absorbance at dilution ratio 400", "setting": "[2]", "result": 2.36, "unit": "absorbance"}, {"measurement": "absorbance at dilution ratio 800", "setting": "[2]", "result": 2.08, "unit": "absorbance"}, {"measurement": "absorbance at dilution ratio 1600", "setting": "[2]", "result": 1.9, "unit": "absorbance"}, {"measurement": "absorbance at dilution ratio 3200", "setting": "[2]", "result": 1.43, "unit": "absorbance"}, {"measurement": "absorbance at dilution ratio 6400", "setting": "[2]", "result": 0.831, "unit": "absorbance"}, {"measurement": "absorbance at dilution ratio 12800", "setting": "[2]", "result": 0.648, "unit": "absorbance"}, {"measurement": "absorbance at dilution ratio 25600", "setting": "[2]", "result": 0.398, "unit": "absorbance"}, {"measurement": "absorbance at dilution ratio 51200", "setting": "[2]", "result": 0.256, "unit": "absorbance"}, {"measurement": "absorbance at dilution ratio 102400", "setting": "[2]", "result": 0.189, "unit": "absorbance"}]}
